Experimental findings from a protein production outcome set (Wang et al. 2014) are described below.

This series is described as follows: label from the status in PepcDB records.
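Note: failed if final PepcDB status was selected cloned or expressed and not failed if soluble or beyond.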

“MTRSQNVLAGLLLAGLLAPHAVSAEGYQTPPPELAALVDAPRTPLQSLNPQGDAVLQTHRPGLPAIADVAQPELKLAGLRLNPRMRAASRFDFGSALTLLDVKSGKSRPVTGLPARPRIADNAWSPDGKQVALSLWGDRGVELWLLDAASARVRRLGDFHLNASSGRGFAWMGAQLLVKLLPAGQGPAPEKPSTPTGPNIQQSAGGALSQTRTYPDLLKTPYDADLLDYELNSQLALVDLSGRTKLIGKPDRYLSVQASPDRRYLLATKLQRPYSTLVPLNRFPRRIEVLNLQGDSVHLVAQRPLLERMPSGNDAVETGPREVQWRTDAPATLFWAEAQDGGDPSTPAKARDALYLLPAPFQQPPLKLQELASRFAGIQWGRGDLALVSEYWWKTRDLKVWRVRPAEPDHAPTLLNRRSSEDRYADPGSPAMVSNADGLPVLQTSPDGGSLYLLGEGASPEGDRPFIDQLNLADNKATRLWRSQAPWYEAPMAVLDGGKTALLSREQADAPPNLYLKTLGQGGGLKQLTFFPHPTPQLKNVQKRQLRYKRADGIDLTATLYLPPGYDAKRDGPLPMLMWAYPAEFKSADAASQVTDSPYRFNRVGYWGPEALLARGYVVLDDPSMPIVGAGKQEPNDTYLPQLKMDAQAAVDEVVRLGVADRDRIAIGGHSYGAFMTANLLAHTRLFRAGIARSGAYNRTLTPFGFQSEERDFWQAKDVYQAMSPFNYAEQIKDALLLIHGEADNNPGTFPIQSERMYQALQGLGGTVRLAMLPAESHGYRARESILHMLWEEDRWLDQFVKRAKPRAQGTAAR”: the protein production result is “failed”.

For the sequence “MTRTFDTPLPIDDALDELTAALEASNTAVLVAPPGAGKTTRVPLALLDAPWLRNQKIIVLEPRRIAARASAERMAKTLSEKAGERIGYRVRFGSKVSRATRIEVVTEGIFTRQILDDPELNGVAAVLFDEFHERSLDADLGLALARDAQQGLREDLRILVMSATIDGARVARLLGDAPVVESLGRAFPVETRYLGRRSDAPLERQMAEAIAQALRAETGSVLAFLPGAAEIRRTETMLRERVQDPAVEIVPLFGALDAAVQDRAIQPAPKGQRKVVLATSIAETSLTIEGVRIVVDCGLSRVPRYEPDLGLTRLETVRASRAAVDQRRGRAGRIEPGVCYRLWDEPQTASLPAYTQPEILSADLSSLLLDLAQWGVADPSSLAFLDPPPQPALKEARELLGELGALDPDGRITDEGRSLRAMALPPRLARMIVDAARHDCAKDAAEVAAILTERGLGGDSADLDNRRDQFRRDRSQRASSARQMAQRWATQAASSSPSPQDAGELSSGVLLAFAFPDRVAKNRGNGSFTLANGRGAAVEQTSALARAPYLAVGELTGSAAQGRILLAAPIALSEIELHFGDQITDADEVSFDRSAMALRARRRRALHAITLSEAPLALTPSEQTARVLAEGLVVAGLDRLPWSKQLQQWRGRVMFLRKAEGDPWPDLSDAALAETRENWLVPALFDKTGLKDFSASDLSDALMNLLPWELRARLDREAPTHFEAPTGSKLPIDYEAEQGPTIAVRLQELFGLTTHPSVAGGAVPLVLELLSPAHRPVQVTRDLPGFWRGSYAGVRADLRGRYPRHPWPEDPASAPPTRRAKPKGT”, the protein production result was “failed”.

With “MTRYALLVRGINVGGKNKVVMAELRQELTNLGLEKVESYINSGNIFFTSIDSKAQLVEKLETFFAVHYPFIQSFSLLSLEDFEAELENLPAWWSRDLARKDFLFYTEGLDVDQVIATVESLELKDEVLYFGKLGIFWGKFSEESYSKTAYHKYLLKVPFYRHITIRNAKTFDKIGQMLKK”, the protein production result is recorded as “not failed”.

Regarding “MTSAREAFDLYRAGRTAEAAALCERLVAAAPSVEAWHLLGVARLELGAAQAALTALDAGLALDPVRPGLLSARTLALTSLHRDDEAVVAARAALAVDPDNPPVFNALAVSLQRLGGFSEALAAIDHAVAAAPREAAYRAHRAALLVLLNRPAEAARDLEAVLEVNPSHPRVAGDLMWARRQTCDWREDAALDMLVKADLKLGRAGVAPFAALALFDLPVLHRRCATLSAPPSVPAPVWPVRRPGERLRVAYLSSDLHEHATARLLAGVLEAHDRSRFEIFAVSYGPETGGAMQERLRAACEHWIEARRLSDAEIALKCRQQGVDIAVDLKGYTQDGRPGILAHRAAPLQVSWLGYPGTLGAHADVVLADAVTLPPGAETNWSEAVVRLPCYQPNDGLTSVIPAPSRADMGLPERVRVFCCFNNPAKITPEVFATWMAILRAAPDSVLWLYAGAPGAADNLRGHARAAGVAPERLVFAEPAPHEAHLARHVLADLVLDTWPYGAHTTASDALRMGVPVLTLPGESFASRVGASLATAIGMTELIATSRADYVAKALAMAADGALKPRVAEAVRRSNLFDPVAFARSLETVYAGLVRR”, the protein production entry is on record as “failed”.

As for “MTSFDRPFEAARPDGENPSAHETLAEGGRLRPEATYTIPARQGRAIRMAQGEALMVINRDGSQIGDFWAFVEGDCGEYLSMEHLRPTLRRVSPRPGDVLVSNRRRPILTLLEDSSPGVHDTLVASCDVHRYAQLGHEGYHDNCTDNLRMALGALGLRPTTVPCPLNLWMNTPVVEGGAMEWRPPVSRRGDHVLFRAELDVVVVISCCPMDLLPINGEEAQPRALDVRLRPRPA”, the protein production entry is “not failed”.

Take “MTSFVGTRGRGNCGTAPGRSPSLQAHGKMGRRREPGVPEESCCSHDACCEKAAKPRVEEVATSGCADCCSAGVPVFDGLDPRYKRILWTVIAINAAMFVSEMVAGHLAGSQALKADALDFLADTVTYGLSLSVIGASLKTRATAALFKGVSLSAMAAWVFGSTVYQTLILGLPRAELMGAMSLAALAANLTSVLLLARYKDGDANVRSVWLCSRNDAVGNVIVMIAAVGVFGTGTAWPDLAVAAVMAGIFLTSSLQILRQAWAEYRGGQAAATA”: the protein production entry was “failed”.

Regarding “MTSGIDLQNSFLQSLQGFGLPPGLAKLFWIPLPSILMIIGATVGVLVVVWLERKISAAAQQRIGPEYAGPLGVLQPVADGIKLVFKEDVVPAKADPWLFTLGPVLVVLPVFLSYLIVPFGQNLVITDINVGIFLWIALSSIAPIGLLMSGYASNNKYSLLGGLRAAAQSISYEIPLSLAVLAIVMMSNSLSTIDIVDQQSGYGILGWNIWRQPVGFLIFWIAALAECERLPFDLPEAEEELVAGYQTEYAGMKFALFYLGSYVNLVLSALVFSVLYLGGWDFPIPLENVANWLGVAPTTSWLQVLMAALGITMTVLKSYFLIFIAILLRWTVPRVRIDQLLNLGWKFLLPVALANLLITAALKLTFPMAFGG”, the protein production entry was “failed”.

Consider “MTSLRRRCIRQVPNTLTVGRFALVPVAAGFIWTGDLRAAFWVFVAAGITDALDGWLARVLDARTALGATLDPLADKALLVATFFTLALTGAIPLWLLGLVALRDALILAGFAWLRLRAGRPIRVTPNILGKANTLAQILLCAAVIGASAFTLDLSAVIAVLTPVVAATTIISGIAYLRMWLRRGWDGQQAHDRIERTRRNNQQRDDR”, for which the protein production result is listed as “failed”.

For the sequence “MTSPKHPPIRRDWLSKILAGTLLGFTLALGCSGLLVLALPQLPLPVKAQLAMWVVMPLWLGVLSGCFAFRDGRRAWLWLGGATALVLDLLVVARLS”, the protein production entry was “failed”.

As to “MTSPVQATPEPQPGLVARLSAEALGSMFVVVAAVGVGIFSNPGAAPLPAALATGLTVTAAMLAFGYVSGGHFNPAITLGNLIAGRIRAVAAVAYVAAQIIGSVVGAALMYFVVTTVPVLTDARAAFDVVAPGFGDHASAQTQMAGVLLVEVLGSALLVAVFLGATAGRRALPAMAPFAVGLAMAVLLQLGQVLGNLPFNPARATAQAFFSSPWAIEGLWLFWVAPLMGAALAGLAFRGFQGLSQAAVADTDHFHGGTDGINDAFDADDEPAEDSEVKEEAAAKADIAPSRAVPTVPVTDDARDFFDGKKGK”, the protein production entry is “failed”.

As for “MTSQGRAAMVRRMHDPQQPIRWRDLDLDPTHWVREILRVLGLALSRLWGRDVMLYVGGVSFFALLAVFPGLAILIGLYSLFLTPETAAWQAVKLAELIPSGARSIVQDELSRLAHAPGQTISLQSGVVLIVGAYAAHRGFKALLAGLSFIHDEENQRGFLGFNLMALLVLMAAFGLLFIMSGIFLTLRLLGTALELRPLAGVSWIQSEWTWASFGIVVGMSLVYRYAMSRQIVGWRASIAGGVAAAALCVFMSWASAFYVEKVVHLGATYGSVSAVIIFLIWLSWSVNAIFFGGALATEVEIALDERPRALLEGPRPIALKAPSESES”, the protein production entry is “failed”.
